The text below walks through data of publication PMC5657569 (Molecular cell, 2017).

B1: Estrogen receptor alpha (ERα), purified human protein (receptor, UniProt P03372 1-595, looked up)
chain: MTMTLHTKASGMALLHQIQGNELEPLNRPQLKIPLERPLGEVYLDSSKPAVYNYPEGAAYEFNAAAAANAQVYGQTGLPYGPGSEAAAFGSNGLGGFPPLNSVSPSPLMLLHPPPQLSPFLQPHGQQVPYYLENEPSGYTVREAGPPAFYRPNSDNRRQGGRERLASTNDKGSMAMESAKETRYCAVCNDYASGYHYGVWSCEGCKAFFKRSIQGHNDYMCPATNQCTIDKNRRKSCQACRLRKCYEVGMMKGGIRKDRRGGRMLKHKRQRDDGEGRGEVGSAGDMRAANLWPSPLMIKRSKKNSLALSLTADQMVSALLDAEPPILYSEYDPTRPFSEASMMGLLTNLADRELVHMINWAKRVPGFVDLTLHDQVHLLECAWLEILMIGLVWRSMEHPGKLLFAPNLLLDRNQGKCVEGMVEIFDMLLATSSRFRMMNLQGEEFVCLKSIILLNSGVYTFLSSTLKSLEEKDHIHRVLDKITDTLIHLMAKAGLTLQQQHQRLAQLLLILSHIRHMSNKGMEHLYSMKCKNVVPLYDLLLEMLDAHRLHAPTSRGGASVEETDQSHLATAGSTSSHSLQKYYITGEAEGFPATV
B2: CARM1, purified human protein (enzyme, UniProt Q86X55 1-608, looked up)
chain: MAAAAAAVGPGAGGAGSAVPGGAGPCATVSVFPGARLLTIGDANGEIQRHAEQQALRLEVRAGPDSAGIALYSHEDVCVFKCSVSRETECSRVGKQSFIITLGCNSVLIQFATPNDFCSFYNILKTCRGHTLERSVFSERTEESSAVQYFQFYGYLSQQQNMMQDYVRTGTYQRAILQNHTDFKDKIVLDVGCGSGILSFFAAQAGARKIYAVEASTMAQHAEVLVKSNNLTDRIVVIPGKVEEVSLPEQVDIIISEPMGYMLFNERMLESYLHAKKYLKPSGNMFPTIGDVHLAPFTDEQLYMEQFTKANFWYQPSFHGVDLSALRGAAVDEYFRQPVVDTFDIRILMAKSVKYTVNFLEAKEGDLHRIEIPFKFHMLHSGLVHGLAFWFDVAFIGSIMTVWLSTAPTEPLTHWYQVRCLFQSPLFAKAGDTLSGTCLLIANKRQSYDISIVAQVDQTGSKSSNLLDLKNPFFRYTGTTPSPPPGSHYTSPSENMWNTGSTYNLSSGMAVAGMPTAYDLSSVIASGSSVGHNNLIPLANTGIVNHTHSRMGSIMSTGIVQGSSGAQGSGGGSTSAHYAVNSQFTMGGPAISMASPMSIPTNTMHYGS

Assay [1] addresses p300, purified recombinant protein from baculovirus (human, UniProt Q09472 1-2414). Kind of assay: cryo-EM structure.
In assay [2] the target is B2. Kind of assay: cryo-EM structure.

p300, purified recombinant protein from baculovirus, sequence (Q09472 whole entry): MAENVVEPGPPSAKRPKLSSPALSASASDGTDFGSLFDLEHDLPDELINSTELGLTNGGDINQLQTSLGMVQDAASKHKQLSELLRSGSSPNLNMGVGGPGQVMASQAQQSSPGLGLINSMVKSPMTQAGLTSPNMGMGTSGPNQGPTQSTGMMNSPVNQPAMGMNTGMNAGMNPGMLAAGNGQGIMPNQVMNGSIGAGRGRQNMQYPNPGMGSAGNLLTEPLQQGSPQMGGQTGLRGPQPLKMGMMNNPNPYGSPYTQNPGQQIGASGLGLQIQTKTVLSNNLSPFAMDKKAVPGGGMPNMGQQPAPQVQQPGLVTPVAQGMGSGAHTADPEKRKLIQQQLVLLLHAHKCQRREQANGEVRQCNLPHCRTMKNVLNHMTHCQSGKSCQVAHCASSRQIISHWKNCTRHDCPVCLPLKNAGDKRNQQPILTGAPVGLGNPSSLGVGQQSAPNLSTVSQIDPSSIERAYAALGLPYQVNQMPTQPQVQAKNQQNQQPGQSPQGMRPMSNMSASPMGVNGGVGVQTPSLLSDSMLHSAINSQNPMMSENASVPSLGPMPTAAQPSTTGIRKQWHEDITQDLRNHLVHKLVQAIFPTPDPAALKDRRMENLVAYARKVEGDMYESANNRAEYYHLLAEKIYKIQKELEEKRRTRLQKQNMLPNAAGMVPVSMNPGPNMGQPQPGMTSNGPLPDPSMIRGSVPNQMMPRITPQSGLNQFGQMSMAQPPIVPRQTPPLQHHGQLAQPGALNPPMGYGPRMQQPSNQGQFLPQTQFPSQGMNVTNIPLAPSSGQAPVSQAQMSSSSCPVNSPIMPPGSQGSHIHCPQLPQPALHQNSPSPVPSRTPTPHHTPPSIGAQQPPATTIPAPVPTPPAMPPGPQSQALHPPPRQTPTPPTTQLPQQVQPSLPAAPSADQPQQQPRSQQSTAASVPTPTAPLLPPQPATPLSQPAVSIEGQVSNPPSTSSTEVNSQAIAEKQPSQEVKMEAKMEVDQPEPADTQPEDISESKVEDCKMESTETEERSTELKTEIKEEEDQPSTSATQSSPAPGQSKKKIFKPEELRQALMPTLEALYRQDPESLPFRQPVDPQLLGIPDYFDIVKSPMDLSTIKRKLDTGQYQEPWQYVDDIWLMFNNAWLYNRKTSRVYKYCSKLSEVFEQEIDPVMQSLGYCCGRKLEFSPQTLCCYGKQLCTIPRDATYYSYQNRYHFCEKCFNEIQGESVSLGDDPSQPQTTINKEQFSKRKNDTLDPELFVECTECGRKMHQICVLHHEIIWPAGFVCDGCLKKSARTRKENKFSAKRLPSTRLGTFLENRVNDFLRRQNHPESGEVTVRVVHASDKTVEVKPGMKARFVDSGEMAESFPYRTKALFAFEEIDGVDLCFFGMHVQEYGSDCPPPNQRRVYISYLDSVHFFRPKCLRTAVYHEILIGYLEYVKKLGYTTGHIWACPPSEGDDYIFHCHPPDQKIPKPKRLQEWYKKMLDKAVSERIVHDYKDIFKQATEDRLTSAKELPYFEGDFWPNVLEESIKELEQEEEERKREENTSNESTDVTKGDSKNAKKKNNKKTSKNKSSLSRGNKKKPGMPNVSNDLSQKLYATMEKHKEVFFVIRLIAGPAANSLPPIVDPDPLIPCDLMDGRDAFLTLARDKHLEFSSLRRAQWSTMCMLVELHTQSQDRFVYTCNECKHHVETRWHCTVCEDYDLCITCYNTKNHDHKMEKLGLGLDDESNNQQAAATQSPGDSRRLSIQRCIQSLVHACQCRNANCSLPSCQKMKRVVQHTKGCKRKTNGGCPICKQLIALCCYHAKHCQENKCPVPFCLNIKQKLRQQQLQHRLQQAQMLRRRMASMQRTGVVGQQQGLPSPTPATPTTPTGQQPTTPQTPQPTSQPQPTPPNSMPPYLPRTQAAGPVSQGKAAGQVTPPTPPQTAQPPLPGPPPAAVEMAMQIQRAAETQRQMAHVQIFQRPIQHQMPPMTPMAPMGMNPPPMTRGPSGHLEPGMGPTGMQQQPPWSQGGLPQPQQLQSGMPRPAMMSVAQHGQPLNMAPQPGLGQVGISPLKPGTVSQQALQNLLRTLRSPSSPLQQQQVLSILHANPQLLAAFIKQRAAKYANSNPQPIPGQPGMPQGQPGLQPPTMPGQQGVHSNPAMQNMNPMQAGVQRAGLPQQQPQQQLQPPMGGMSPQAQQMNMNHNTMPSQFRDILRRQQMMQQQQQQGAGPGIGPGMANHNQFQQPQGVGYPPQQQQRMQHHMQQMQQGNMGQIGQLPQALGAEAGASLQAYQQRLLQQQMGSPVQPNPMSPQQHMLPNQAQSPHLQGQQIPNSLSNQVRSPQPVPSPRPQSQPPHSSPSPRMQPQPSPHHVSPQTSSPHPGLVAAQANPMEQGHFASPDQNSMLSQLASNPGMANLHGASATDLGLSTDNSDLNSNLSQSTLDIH

Consider B1, for which the binding result in assay [1] and in assay [2] was “binds” in each case. With B2, in assay [1], the binding result is given as “binds”.
